Data reported in patent US20240026407A1, “MODIFICATION OF SAPONINS” (GLAXOSMITHKLINE BIOLOGICALS SA, priority 2020, published 2024).

How the values were obtained:
[1] = Example 9: screening of rhamnosidase variants for derhamnosylation of saponins in crude bark extract; assay type: biochemical, Quillaja saponaria; conditions: 18 h, CBE 75% v/v, 100 mM Sodium acetate pH 5.8
Protocol: Libraries of genetic variants encoding mutations in the wild type Kribbella flavida rhamnosidase (SEQ ID No. 1017) were prepared using molecular biology techniques, enzymes were prepared linked to a C-terminally located His-tag. Single monoclonal colonies were grown in 400 ul of expression medium and protein expressed. Cell pellets were lysed in 200 ul of the relevant buffer (Table 17).
Lysate was diluted appropriately in the relevant buffer to allow a lysate loading of the indicated % loading (1% loading corresponds to use of 2 ul original lysate in a 200 ul reaction).
Crude bark extract (CBE) obtained by aqueous extraction of Quillaja saponaria and containing at least 2.80 mg/ml QS-21 (by HPLC-UV) was adjusted to pH 6 by dropwise addition of 2M NaOH with stirring. The relevant concentration of the relevant glucosidase was added. The appropriate relative volume of pH 6 CBE (160 ul (for 80%) or 150 ul (for 75%)) was added to each well of the reaction plate. The reaction plate was sealed and incubated at the relevant temperature and time.
The reaction plate was quenched by adding 200 uL of MeCN (2% AcOH, 1 mg/mL hexanophenone) to each well of the plates. The quenched reaction plate was re-sealed and incubated at 20 deg C. with shaking for 10 min. The reaction plate was then centrifuged (10 min, 4 degC).
200 uL was transferred from each well of the quenched plate to the corresponding wells of a fresh 96 well plate and sealed. The plate was analysed by UV HPLC with the method described in Example 4.
Three key peaks of interest are apparent using this chromatography: Left Peak (retention time approximately 2.30-2.35 min) comprising mainly QS-17 family components; Middle Peak (retention time approximately 2.37-2.42 min) comprising mainly QS-18 family components and desglucosyl-QS-17 family components; and Right Peak (retention time approximately 2.44-2.50 min) comprising mainly QS-21 family components. Peak identity was supported by MS/MS.
Enzyme activity is calculated as the % conversion of the Left Peak present in the crude bark extract: […]

[2] = Example 10: derhamnosylation of saponins in crude bark extract (50%) using WT and engineered rhamnosidases R1 to R5; assay type: biochemical, Quillaja saponaria; conditions: 7 h, 50% CBE, 35 degC; for % Right Peak: starting CBE 26; for % Left Peak: starting CBE 30; for % Middle Peak: starting CBE 44
Protocol: Lyophilised powders from clarified cell lysate expressing glucosidases (from Example 8 WT glucosidase and engineered glucosidase polypeptides G1 to G5) and rhamnosidases (from Example 9 WT rhamnosidase and engineered rhamnosidase polypeptides R1 to R5) were dissolved in 200 mM sodium acetate aqueous solution at pH 5.8 to prepare the enzyme solutions at 4 fold the final reaction concentration as shown in Tables 19 and 20.
Each rhamnosidase solution was combined with an equal volume of 200 mM sodium acetate aqueous solution at pH 5.8 and separately with an equal volume of 200 mM sodium acetate aqueous solution at pH 5.8 containing 2 mg/ml glucosidase G5. This is a sufficient loading of glucosidase to effect complete hydrolysis of the relevant glucose moiety within 4 hours.
CBE was adjusted to pH of 6.0 to 6.2 with 2M sodium hydroxide and an equal volume added to the enzyme solution to prepare the reaction mix (i.e. 50% CBE concentration in reaction mix) and the concentration of glucosidase and/or rhamnosidase is shown in Tables 19 and 20. The reaction mix was heated to 35 degC for the time indicated in Tables 19 and 20, after which the reaction was quenched by addition of an equal volume of MeCN containing 2% acetic acid and shaken at room temperature for 10 mins prior to centrifugation (10 min, 4 degC) to remove particulates. Samples were analysed by UV HPLC using method of Experiment 4-4.
The change in composition of the Left, Middle and Right peaks is shown in Tables 19 and 20. The composition changes by the action of the enzymes depending on the presence or absence of the partner enzyme. The extent of reaction is proportional to the enzyme concentration and the reaction time under these conditions. The tables show data for enzyme concentrations and the reaction times providing for equivalent extents of reaction. The improvement resulting from the mutations introduced for each variant is equal to the fold change in enzyme concentration×time (i.e. fold improvement=(enzyme concentration×time) for preceding variant÷(enzyme concentration×time) for later variant). A cumulative fold improvement over the original enzyme variant is calculated by the product of the individual fold improvements.

[3] = rhamnosidase 0.31 mg/ml + glucosidase G5 0.5 mg/ml
[4] = rhamnosidase 0.31 mg/ml, no glucosidase

B1: Variant R4: engineered rhamnosidase polypeptide, variant of Kribbella flavida rhamnosidase SEQ ID No. 1017 (protein)
chain: MSFPAAPARLRFEHRTDPGPVLGIGTATPRLSWQVPTAPDDYRQAGYEVEIARGDAAPEQYTVDSADQVLVPWPGTPLAARESATVRVRVRGDGDWSQWSDPATVEAGLLSADDWTARFVSPRENAGHEAPAPLIGGVIDLPPDIAQARLYATAHGIYEPTLNGTRVGDEQLAPGWTAYEQRLRYQTYDVTDLVAPGENRLELLVGNGWYRGRMSFHNGHSLYGDRLAVLAQLEVTTATGEVKVLASDGTWTTRETNVLADDLYDGQHVDLRRTLGEPGPVDVLDADLSLLVAPDGPPVRVTDVLPAKAVTTSPAGKTLVDFGQNVVGRLRLRVRGGAAGDEIVLRHAEVLEDGELCVRPLRTAKATDSFVLAGPDEVTLEPTLTFHGFRYAEITGVPDLRAEDVEAVVVGSDLRRTGWFESSHPLLDRFHENVVWGMRGNFLDVPTDCPQRDERLGWTGDIQVFSPTASFLFDTAGFLTNWLADLIAEQHKDGSVPFVVPDVLRQPSPATAAWGDAATIVPWVLYERTGDAGLLARQLPSMRAWVDRMAGLAGDDLLWVGGFQFGDWLDPTAPPDDPFRAKADPDVLATAHLARSAEVVALAAEVVGAGELAREYAELAARVRQAFAAEYTTASGRVLSDAATNYALALQWALLPTEAQRKRAGERLADLVRTAGFRISTGFVGTPLMADALADSGHPDLAYRLLLETGCPSWLYAVTMDATTVWERWDSMLPDGSINPGQMTSFNHYALGAVADWMHRRVAGLAPGDPGYRRIVVDPLFTAHLTKASARHLTPYGEAAVAWSRSGGRVRLEVTVPVGARARVAVPGESAPVEVGHGTHEWTADDVYGETPPLPADATIRQLIDHEPSWTTLAAAATRTGIVADDAELAGRLERYLDHPATELVDAVSPRGFSPSAEALHAELDSVLGR
modifications: Seq ID No. 1017 with mutations A143P, L214M, G215S, G218N, K219G, G357C, G508S, G634A, Q921H
[1]; R4 round: 35 deg C, lysate 0.125% v/v
  % conversion (Right peak/Left Peak) (−neg control): 5.06%
[1]; R4 round: 35 deg C, lysate 0.125% v/v, estimate
  Cumulative FIOP from WT: 22.1
[1]; R4 round: 35 deg C, lysate 0.125% v/v, negative control 26.09
  Right Peak %: 27.00%
[1]; R4 round: 35 deg C, lysate 0.125% v/v, negative control 29.62
  Left Peak %: 25.03%
[1]; R4 round: 35 deg C, lysate 0.125% v/v, negative control 44.29
  Middle Peak %: 47.96%
[1]; R4 round: 35 deg C, lysate 0.125% v/v, negative control 46.84
  % conversion (Right peak/Left Peak): 51.89%
[1]; R4 round: 35 deg C, lysate 0.125% v/v, positive control R3
  FIOP (% area increase variant/pos control): 2.3
[1]; R5 round: 35 deg C, lysate 0.0625% v/v
  % conversion (Right peak/Left Peak) (−neg control): 2.02%
[1]; R5 round: 35 deg C, lysate 0.0625% v/v, negative control 26.23
  Right Peak %: 26.79%
[1]; R5 round: 35 deg C, lysate 0.0625% v/v, negative control 28.76
  Left Peak %: 27.09%
[1]; R5 round: 35 deg C, lysate 0.0625% v/v, negative control 45.00
  Middle Peak %: 46.12%
[1]; R5 round: 35 deg C, lysate 0.0625% v/v, negative control 47.70
  % conversion (Right peak/Left Peak): 49.72%
[2]; [3]
  % change in Left Peak: −42%
  % change in Middle Peak: −93%
  % change in Right Peak: 306%
  Cumulative Fold improvement in primary enzyme loading × time: 16
  Fold improvement in primary enzyme loading × time: 2.0
  % Right Peak: 79%
  % Left Peak: 17%
  % Middle Peak: 3%
[2]; [4]
  % change in Left Peak: −45%
  % change in Middle Peak: 22%
  % change in Right Peak: 115%
  Cumulative Fold improvement in primary enzyme loading × time: 16
  Fold improvement in primary enzyme loading × time: 2.0
  % Right Peak: 30%
  % Left Peak: 16%
  % Middle Peak: 54%
